Drawing on publication PMC10125973, “A small secreted protein NICOL regulates lumicrine-mediated sperm maturation and male fertility” (Nature Communications, 2023), this text covers Kd, koff and kon for one molecule.

The experiment addresses T1, neural epidermal growth factor-like like 2 (NELL2), C-terminally 6xHis-tagged recombinant (UniProt Q61220 25-819).
T1 construct: NELL2, secreted protein; also called purified recombinant NELL2; source: human 293-F cells, transiently expressed, purified from conditioned medium (ammonium sulphate, Ni-NTA, PD-10)
T1 sequence (looked up): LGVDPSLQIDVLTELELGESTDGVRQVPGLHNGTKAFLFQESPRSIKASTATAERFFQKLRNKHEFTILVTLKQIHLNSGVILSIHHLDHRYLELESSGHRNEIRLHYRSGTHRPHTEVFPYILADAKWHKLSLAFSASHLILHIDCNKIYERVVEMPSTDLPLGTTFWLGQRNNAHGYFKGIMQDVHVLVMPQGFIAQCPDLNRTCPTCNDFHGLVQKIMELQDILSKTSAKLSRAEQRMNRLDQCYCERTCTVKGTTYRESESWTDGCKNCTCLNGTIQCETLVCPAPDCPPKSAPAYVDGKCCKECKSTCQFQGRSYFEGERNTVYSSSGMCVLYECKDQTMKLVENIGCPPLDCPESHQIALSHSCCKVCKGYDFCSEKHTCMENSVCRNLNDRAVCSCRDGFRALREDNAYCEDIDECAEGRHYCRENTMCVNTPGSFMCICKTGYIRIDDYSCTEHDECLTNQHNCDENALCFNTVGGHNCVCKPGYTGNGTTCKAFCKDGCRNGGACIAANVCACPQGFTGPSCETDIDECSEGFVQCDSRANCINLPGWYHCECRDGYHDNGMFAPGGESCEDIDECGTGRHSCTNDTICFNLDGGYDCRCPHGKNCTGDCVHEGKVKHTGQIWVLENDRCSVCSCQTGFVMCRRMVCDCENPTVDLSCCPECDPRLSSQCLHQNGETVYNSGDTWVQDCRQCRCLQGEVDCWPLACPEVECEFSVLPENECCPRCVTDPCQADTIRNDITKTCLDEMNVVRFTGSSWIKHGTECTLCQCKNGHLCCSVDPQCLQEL
Kind of experiment: SPR; purified NELL2 immobilised on series S sensor chip CM5; purified NICOL in PBS as analyte; Biacore T200. Particulars: both partners purified.

B1: NELL2-interacting cofactor for lumicrine signalling (NICOL), 6xHis-tagged recombinant (natural protein, mouse, UniProt Q3UR78 29-90, looked up)
chain: EPATGSAVPAQSRPCVDCHAFEFMQRALQDLRKTAYSLDARTETLLLQAERRALCACWPAGR
notes: mouse NICOL (predicted gene Gm1673, ortholog of human C4orf48), small secreted protein; cDNA encoding mouse NICOL followed by 6xHis; purified from conditioned medium, so without its signal peptide; also called purified recombinant NICOL protein; source: human 293-F cells, transiently expressed, purified from conditioned medium (ammonium sulphate, Ni-NTA, PD-10)
Regarding B1, the dissociation constant (Kd) was found to be 87 nM, the off-rate (koff) amounted to 0.0062 s⁻¹ and the kon turned out to be 72000 M⁻¹ s⁻¹.
